Experimental data reported in patent publication US20220387487A1, “COMPOSITIONS AND METHODS FOR TREATMENT OF CANCER” (Aleta Biotherapeutics Inc., priority 2019, published 2022).
Numbering of substitutions follows the chain as printed. In names and notes the source's numbering stands.

B1: E224G/G226E/L228I: CD19 variant (protein)
chain: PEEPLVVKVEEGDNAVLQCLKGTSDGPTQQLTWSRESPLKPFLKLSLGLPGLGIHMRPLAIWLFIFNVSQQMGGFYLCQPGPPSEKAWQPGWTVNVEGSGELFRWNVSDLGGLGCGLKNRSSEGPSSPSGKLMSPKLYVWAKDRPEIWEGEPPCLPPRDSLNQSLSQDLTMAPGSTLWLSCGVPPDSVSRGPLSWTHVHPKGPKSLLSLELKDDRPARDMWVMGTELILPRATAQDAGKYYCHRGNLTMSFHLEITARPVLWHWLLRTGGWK
B2: L59N/I61V/L63L: CD19 variant (protein)
chain: B1 chain with L59N, I61V, G224E, E226G, I228L
B3: E224G/G226A/L228T: CD19 variant (protein)
chain: B1 chain with E226A, I228T
B4: W62H/F64F/F66R: CD19 variant (protein)
chain: B1 chain with W62H, F66R, G224E, E226G, I228L
B5: E224G/G226A/L228V: CD19 variant (protein)
chain: B1 chain with E226A, I228V
B6: E224E/G226E/L228V: CD19 variant (protein)
chain: B1 chain with G224E, I228V
B7: W62E/F64C/F66S: CD19 variant (protein)
chain: B1 chain with W62E, F64C, F66S, G224E, E226G, I228L
B8: W62D/F64A/F66S: CD19 variant (protein)
chain: B1 chain with W62D, F64A, F66S, G224E, E226G, I228L
B9: W62D/F64V/F66S: CD19 variant (protein)
chain: B1 chain with W62D, F64V, F66S, G224E, E226G, I228L
B10: W62G/F64V/F66K: CD19 variant (protein)
chain: B1 chain with W62G, F64V, F66K, G224E, E226G, I228L
B11: E224G/G226G/L228I: CD19 variant (protein)
chain: B1 chain with E226G
B12: W62T/F64V/F66R: CD19 variant (protein)
chain: B1 chain with W62T, F64V, F66R, G224E, E226G, I228L
B13: W62Y/F64S/F66R: CD19 variant (protein)
chain: B1 chain with W62Y, F64S, F66R, G224E, E226G, I228L
B14: W62G/F64V/F66R: CD19 variant (protein)
chain: B1 chain with W62G, F64V, F66R, G224E, E226G, I228L
B15: E224G/G226D/L228V: CD19 variant (protein)
chain: B1 chain with E226D, I228V
B16: E224D/G226V/L228V: CD19 variant (protein)
chain: B1 chain with G224D, E226V, I228V
B17: E224G/G226S/L228M: CD19 variant (protein)
chain: B1 chain with E226S, I228M
B18: W62R/F64A/F66F: CD19 variant (protein)
chain: B1 chain with W62R, F64A, G224E, E226G, I228L
B19: E224G/G226R/L228I: CD19 variant (protein)
chain: B1 chain with E226R
B20: W62N/F64L/F66P: CD19 variant (protein)
chain: B1 chain with W62N, F64L, F66P, G224E, E226G, I228L
B21: E224G/G226S/L228V: CD19 variant (protein)
chain: B1 chain with E226S, I228V
B22: E224G/G226V/L228V: CD19 variant (protein)
chain: B1 chain with E226V, I228V
B23: W62T/F64V/F66F: CD19 variant (protein)
chain: B1 chain with W62T, F64V, G224E, E226G, I228L
B24: W62D/F64V/F66R: CD19 variant (protein)
chain: B1 chain with W62D, F64V, F66R, G224E, E226G, I228L
B25: W62H/F64V/F66S: CD19 variant (protein)
chain: B1 chain with W62H, F64V, F66S, G224E, E226G, I228L
B26: W62W/F64S/F66S: CD19 variant (protein)
chain: B1 chain with F64S, F66S, G224E, E226G, I228L
B27: W62E/F64E/F66V: CD19 variant (protein)
chain: B1 chain with W62E, F64E, F66V, G224E, E226G, I228L
B28: W62D/F64V/F66M: CD19 variant (protein)
chain: B1 chain with W62D, F64V, F66M, G224E, E226G, I228L
B29: W62D/F64L/F66P: CD19 variant (protein)
chain: B1 chain with W62D, F64L, F66P, G224E, E226G, I228L
B30: W62R/F64V/F66R: CD19 variant (protein)
chain: B1 chain with W62R, F64V, F66R, G224E, E226G, I228L
B31: W62W/F64V/F66A: CD19 variant (protein)
chain: B1 chain with F64V, F66A, G224E, E226G, I228L
B32: W62S/F64F/F66N: CD19 variant (protein)
chain: B1 chain with W62S, F66N, G224E, E226G, I228L
B33: L59N/I61I/L63I: CD19 variant (protein)
chain: B1 chain with L59N, L63I, G224E, E226G, I228L
B34: W62S/F64V/F66A: CD19 variant (protein)
chain: B1 chain with W62S, F64V, F66A, G224E, E226G, I228L
B35: W62T/F64M/F66S: CD19 variant (protein)
chain: B1 chain with W62T, F64M, F66S, G224E, E226G, I228L
B36: W62W/F64T/F66A: CD19 variant (protein)
chain: B1 chain with F64T, F66A, G224E, E226G, I228L
B37: W62E/F64R/F66R: CD19 variant (protein)
chain: B1 chain with W62E, F64R, F66R, G224E, E226G, I228L
B38: E224G/G226R/L228V: CD19 variant (protein)
chain: B1 chain with E226R, I228V
B39: W62S/F64V/F66R: CD19 variant (protein)
chain: B1 chain with W62S, F64V, F66R, G224E, E226G, I228L
B40: W62T/F64R/F66Q: CD19 variant (protein)
chain: B1 chain with W62T, F64R, F66Q, G224E, E226G, I228L
B41: W62A/F64R/F66L: CD19 variant (protein)
chain: B1 chain with W62A, F64R, F66L, G224E, E226G, I228L
B42: W62T/F64A/F66S: CD19 variant (protein)
chain: B1 chain with W62T, F64A, F66S, G224E, E226G, I228L
B43: W62S/F64V/F66S: CD19 variant (protein)
chain: B1 chain with W62S, F64V, F66S, G224E, E226G, I228L

System: FMC63
Assay: CD19 variant binding to anti-CD19 antibody FMC63 (score)
Settings: Table 1B, CD19 triple mutants

FMC63, sequence (as listed by the source): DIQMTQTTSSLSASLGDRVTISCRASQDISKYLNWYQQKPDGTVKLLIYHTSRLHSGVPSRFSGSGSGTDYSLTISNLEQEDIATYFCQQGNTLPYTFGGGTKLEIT
FMC63, sequence (as listed by the source): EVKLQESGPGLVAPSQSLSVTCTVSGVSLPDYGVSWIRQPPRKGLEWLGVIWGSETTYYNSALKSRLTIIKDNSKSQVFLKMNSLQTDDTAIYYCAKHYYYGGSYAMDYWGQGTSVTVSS

Row | Molecule | FMC63 Binding Score
1 | B1 | 14.3 ± 3.4
2 | B2 | 13.9 ± 3.2
3 | B3 | 12.7 ± 2.4
4 | B4 | 12.4 ± 2.3
5 | B5 | 10.8 ± .8
6 | B6 | 11.6 ± 1.2
7 | B7 | 12.6 ± 2.3
8 | B8 | 15.5 ± 5.6
9 | B9 | 13.3 ± 3.2
10 | B10 | 12.3 ± 2.3
11 | B11 | 11.2 ± 1.2
12 | B12 | 12.2 ± 2.1
13 | B13 | 13.7 ± 3.2
14 | B14 | 14.1 ± 1.9
15 | B15 | 12. ± 1.2
16 | B16 | 13.8 ± 3.4
17 | B17 | 13.8 ± 3.4
18 | B18 | 15.9 ± 5.6
19 | B19 | 12. ± 2.
20 | B20 | 15.6 ± 5.6
21 | B21 | 11.2 ± 1.1
22 | B22 | 11.2 ± 1.

Row | Molecule | FMC63 Binding Score
23 | B23 | 13.6 ± 3.2
24 | B24 | 12.6 ± 2.3
25 | B25 | 14. ± 4.
26 | B26 | 14. ± 3.2
27 | B27 | 16.2 ± 5.5
28 | B28 | 16. ± 5.6
29 | B29 | 16.3 ± 5.5
30 | B30 | 12.3 ± 1.6
31 | B31 | 13.7 ± 3.2
32 | B32 | 15.6 ± 5.6
33 | B33 | 15.6 ± 5.6
34 | B34 | 13.5 ± 3.2
35 | B35 | 15.7 ± 5.6
36 | B36 | 13.9 ± 4.
37 | B37 | 12.4 ± 2.1
38 | B38 | 11. ± .9
39 | B39 | 11.8 ± 1.7
40 | B40 | 16.3 ± 5.5
41 | B41 | 13.1 ± 2.3
42 | B42 | 15.7 ± 5.6
43 | B43 | 15.4 ± 2.8
